Measured values reported in patent US20080267974A1 (SCHERING, published 2008).
Values joined by “and” are separate entries in the source; they are usually repeats but may differ in a detail not shown here. Identical values can stand only once. Like-named read-outs stand apart in the source and are kept apart here.

What was measured:
[1] = target: T1, tumor necrosis factor alpha (TNFα) (human, UniProt P01375 77-233); test: affinity by IC50 ELISA (so named in paragraph 380)
[2] = target: T1, tumor necrosis factor alpha (TNFα); test: affinity by IC50 ELISA (so named in paragraph 380); remark: listed apart in the source
[3] = target: T1, tumor necrosis factor alpha (TNFα); test: cell-based or functional assay
[4] = target: T1, tumor necrosis factor alpha (TNFα); test: affinity by IC50 ELISA (so named in paragraph 380); remark: listed apart in the source
[5] = target: T1, tumor necrosis factor alpha (TNFα); test: affinity by IC50 ELISA (so named in paragraph 380); remark: listed apart in the source
[6] = target: T1, tumor necrosis factor alpha (TNFα); test: affinity by IC50 ELISA (so named in paragraph 380); remark: listed apart in the source
[7] = target: T1, tumor necrosis factor alpha (TNFα); test: affinity by IC50 ELISA (so named in paragraph 380); remark: listed apart in the source

T1 sequence (P01375 77-233 limits assumed): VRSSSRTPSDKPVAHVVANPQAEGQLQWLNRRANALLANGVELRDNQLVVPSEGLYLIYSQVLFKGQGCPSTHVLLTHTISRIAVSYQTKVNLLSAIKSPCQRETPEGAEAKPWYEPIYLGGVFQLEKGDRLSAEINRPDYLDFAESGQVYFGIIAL

B1: MAb 874 (antibody, V domains shown)
VH: EVQLLESGGGLIQPGGSLRLSCAASGFTVSSNYMSWVRQAPGKGLEWVSVIYSGGRTYYADSVKGRFTISRDSSKNTLYLQMNSLRAEDTAVYYCARNYAGSTYDYWGQGTLVTVSS
VL: EIVLTQSPVTLSVPPGERASLSCRASQNIYTAVAWYQQKPGQAPRLLIYGASTRATGIPARFSGGGSGTDYTLTISSLESEDFAVYHCQQYHSWPLTFGGGTKLEIK
notes: IgG1/kappa, CHO; also called H1373/L250
Affinity [1]: 0.56 nM | Affinity [2]: 0.56 nM

B2: MAb 1028 (antibody, V domains shown)
VH: EVQLLESGGGLIQPGGSLRLSCAASGFTVSSNYMSWVRQAPGKGLEWVSVIYSGGRTYYADSVKGRFTISRDSSKNTLYLQMNSLRAEDTAVYYCARTYYGSTYDYWGQGTLVTVSS
VL: EIVLTQSPVTLSVPPGERASLSCRASQNIYTAVAWYQQKPGQAPRLLIYGASTRATGIPARFSGGGSGTDYTLTISSLESEDFAVYHCQQYHSWPLTFGGGTKLEIK
notes: IgG1/kappa, CHO; also called H1478/L250
Affinity [1]: 0.32 nM | Affinity [2]: 0.32 nM

B3: MAb 892 (antibody, V domains shown)
VH: EVQLLESGGGLIQPGGSLRLSCAASGFTVSSNYMSWVRQAPGKGLEWVSVIYSGGRTYYADSVKGRFTISRDSSKNTLYLQMNSLRAEDTAVYYCARNYYGSLYDYWGQGTLVTVSS
VL: EIVLTQSPVTLSVPPGERASLSCRASQNIYTAVAWYQQKPGQAPRLLIYGASTRATGIPARFSGGGSGTDYTLTISSLESEDFAVYHCQQYHSWPLTFGGGTKLEIK
notes: IgG1/kappa, CHO; also called H1388/L250
Affinity [1]: 0.43 nM | Affinity [2]: 0.43 nM

B4: MAb 1066 (antibody, V domains shown)
VH: EVQLLESGGGLIQPGGSLRLSCAASGFTVSSNYMSWVRQAPGKGLEWVSVIYSGGRTYYADSVKGRFTISRDSSKNTLYLQMNSLRAEDTAVYYCARNYYGSTLDYWGQGTLVTVSS
VL: EIVLTQSPVTLSVPPGERASLSCRASQNIYTAVAWYQQKPGQAPRLLIYGASTRATGIPARFSGGGSGTDYTLTISSLESEDFAVYHCQQYHSWPLTFGGGTKLEIK
notes: IgG1/kappa, CHO; also called H1487/L250
Affinity [1]: 0.13 nM | Affinity [2]: 0.13 nM

B5: MAb 1037 (antibody, V domains shown)
VH: EVQLLESGGGLIQPGGSLRLSCAASGFTVSSNYMSWVRQAPGKGLEWVSVIYSGGRTYYADSVKGRFTISRDSSKNTLYLQMNSLRAEDTAVYYCARNYYGSTFDYWGQGTLVTVSS
VL: EIVLTQSPVTLSVPPGERASLSCRASQNIYTAVAWYQQKPGQAPRLLIYGASTRATGIPARFSGGGSGTDYTLTISSLESEDFAVYHCQQYHSWPLTFGGGTKLEIK
notes: IgG1/kappa, CHO; also called H1482/L250
Affinity [1]: 0.12 nM | Affinity [2]: 0.12 nM

B6: MAb 2006 (antibody, V domains shown)
VH: EVQLVESGGGLIQPGGSLRLSCAVSGLNVSRDYMSWVRQAPGKGLEWISVIYRGGATHYADSVKGRFTISRDTSKNTVFLQMSRLKVADTAVYYCARNYYGSTLDYWGQGTLVTVSS
VL: EIVLTQSPVTLSVPPGERASLSCRASQNIYTAVAWYQQKPGQAPRLLIYNASTRATGIPARFSGGGSGTDYTLTISSLESEDFAVYHCQQWHSWPLTFGGGTKLEIK
notes: IgG1/kappa, CHO; also called H1831/L459
Affinity [1]: 0.04 nM | IC50, TNFα cytotoxicity assay (WEHI-13VAR cells) [3]: 300 pM | Affinity [4]: 0.04 nM

B7: MAb 1067 (antibody, V domains shown)
VH: EVQLLESGGGLIQPGGSLRLSCAASGFTVSSNYMSWVRQAPGKGLEWVSVIYSGGRTYYADSVKGRFTISRDSSKNTLYLQMNSLRAEDTAVYYCARNYYGSTLDYWGQGTLVTVSS
VL: EIVLTQSPVTLSVPPGERASLSCRASQNIYTAVAWYQQKPGQAPRLLIYGASTRATGIPARFSGGGSGTDYTLTISSLESEDFAVYHCQQWHSWPLTFGGGTKLEIK
notes: IgG1/kappa, CHO; also called H1487/L332
Affinity [1]: 0.12 nM | Affinity [5]: 0.12 nM

B8: MAb 1038 (antibody, V domains shown)
VH: EVQLLESGGGLIQPGGSLRLSCAASGFTVSSNYMSWVRQAPGKGLEWVSVIYSGGRTYYADSVKGRFTISRDSSKNTLYLQMNSLRAEDTAVYYCARNYYGSTMDYWGQGTLVTVSS
VL: EIVLTQSPVTLSVPPGERASLSCRASQNIYTAVAWYQQKPGQAPRLLIYGASTRATGIPARFSGGGSGTDYTLTISSLESEDFAVYHCQQYHSWPLTFGGGTKLEIK
notes: IgG1/kappa, CHO; also called H1483/L250
Affinity [1]: 0.25 nM | Affinity [2]: 0.25 nM

B9: MAb 805 (antibody, V domains shown)
VH: EVQLVESGGGLIQPGGSLRLSCAVSGLNVSRDYMSWVRQAPGKGLEWISVIYRGGATMYADSVKGRFTISRDTSKNTVFLQMSRLKVADTAVYYCARNYYGSTYDYWGQGTLVTVSS
VL: EIVLTQSPVTLSVPPGERASLSCRASQNIYTAVAWYQQKPGQAPRLLIYGASTRATGIPARFSGGGSGTDYTLTISSLESEDFAVYHCQQYHSWPLTFGGGTKLEIK
notes: also called 156 H7; H1329/L250
Affinity [6]: 0.6 nM | IC50, TNFα cytotoxicity assay (WEHI-13VAR cells) [3]: 4800 pM and 10300 pM | Affinity [7]: 0.6 nM

B10: MAb 1989 (antibody, V domains shown)
VH: EVQLVESGGGLIQPGGSLRLSCAVSGLNVSRDYMSWVRQAPGKGLEWISVIYRVGATMYADSVKGRFTISRDTSKNTVFLQMSRLKVADTAVYYCARNYYGSTLDYWGQGTLVTVSS
VL: EIVLTQSPVTLSVPPGERASLSCRASQNIYTAVAWYQQKPGQAPRLLIYNASTRATGIPARFSGGGSGTDYTLTISSLESEDFAVYHCQQWHSWPLTFGGGTKLEIK
notes: IgG1/kappa, CHO; also called H1814/L459
Affinity [1]: 0.05 nM | IC50, TNFα cytotoxicity assay (WEHI-13VAR cells) [3]: 200 pM | Affinity [4]: 0.05 nM

B11: MAb 1132 (antibody, V domains shown)
VH: EVQLLESGGGLIQPGGSLRLSCAASGFTVSSNYMSWVRQAPGKGLEWVSVIYSGGRTYYADSVKGRFTISRDSSKNTLYLQMNSLRAEDTAVYYCARNYYGSTHDYWGQGTLVTVSS
VL: EIVLTQSPVTLSVPPGERASLSCRASQNIYTAVAWYQQKPGQAPRLLIYGASTRATGIPARFSGGGSGTDYTLTISSLESEDFAVYHCQQYHSWPLTFGGGTKLEIK
notes: IgG1/kappa, CHO; also called H1518/L250
Affinity [1]: 0.1 nM | Affinity [2]: 0.1 nM

B12: MAb 1043 (antibody, V domains shown)
VH: EVQLLESGGGLIQPGGSLRLSCAASGFTVSSNYMSWVRQAPGKGLEWVSVIYSGGRTYYADSVKGRFTISRDSSKNTLYLQMNSLRAEDTAVYYCARNYYGSTMDYWGQGTLVTVSS
VL: EIVLTQSPVTLSVPPGERASLSCRASQNIYTAVAWYQQKPGQAPRLLIYGASTRATGIPARFSGGGSGTDYTLTISSLESEDFAVYHCQQWHSWPLTFGGGTKLEIK
notes: IgG1/kappa, CHO; also called H1483/L332
Affinity [1]: 0.31 nM | Affinity [5]: 0.31 nM

B13: MAb 1131 (antibody, V domains shown)
VH: EVQLLESGGGLIQPGGSLRLSCAASGFTVSSNYMSWVRQAPGKGLEWVSVIYSGGRTYYADSVKGRFTISRDSSKNTLYLQMNSLRAEDTAVYYCARNYYGSTHDYWGQGTLVTVSS
VL: EIVLTQSPVTLSVPPGERASLSCRASQNIYTAVAWYQQKPGQAPRLLIYGASTRATGIPARFSGGGSGTDYTLTISSLESEDFAVYHCQQWHSWPLTFGGGTKLEIK
notes: IgG1/kappa, CHO; also called H1518/L332
Affinity [1]: 0.13 nM | Affinity [5]: 0.13 nM

B14: MAb 1210 (antibody, V domains shown)
VH: EVQLLESGGGLIQPGGSLRLSCAASGFTVSSNYMSWVRQAPGKGLEWVSVIYSGGRTYYADSVKGRFTISRDSSKNTLYLQMNSLRAEDTAVYYCARNYYGSTVDYWGQGTLVTVSS
VL: EIVLTQSPVTLSVPPGERASLSCRASQNIYTAVAWYQQKPGQAPRLLIYGASTRATGIPARFSGGGSGTDYTLTISSLESEDFAVYHCQQWHSWPLTFGGGTKLEIK
notes: IgG1/kappa, CHO; also called H1557/L332
Affinity [1]: 0.14 nM | Affinity [5]: 0.14 nM

B15: MAb 1036 (antibody, V domains shown)
VH: EVQLLESGGGLIQPGGSLRLSCAASGFTVSSNYMSWVRQAPGKGLEWVSVIYSGGRTYYADSVKGRFTISRDSSKNTLYLQMNSLRAEDTAVYYCARTYYGSTYDYWGQGTLVTVSS
VL: EIVLTQSPVTLSVPPGERASLSCRASQNIYTAVAWYQQKPGQAPRLLIYGASTRATGIPARFSGGGSGTDYTLTISSLESEDFAVYHCQQWHSWPLTFGGGTKLEIK
notes: IgG1/kappa, CHO; also called H1478/L332
Affinity [1]: 0.18 nM | Affinity [5]: 0.18 nM

B16: MAb 1029 (antibody, V domains shown)
VH: EVQLLESGGGLIQPGGSLRLSCAASGFTVSSNYMSWVRQAPGKGLEWVSVIYSGGRTYYADSVKGRFTISRDSSKNTLYLQMNSLRAEDTAVYYCARLYYGSTYDYWGQGTLVTVSS
VL: EIVLTQSPVTLSVPPGERASLSCRASQNIYTAVAWYQQKPGQAPRLLIYGASTRATGIPARFSGGGSGTDYTLTISSLESEDFAVYHCQQYHSWPLTFGGGTKLEIK
notes: IgG1/kappa, CHO; also called H1479/L250
Affinity [1]: 0.36 nM | Affinity [2]: 0.36 nM

B17: MAb 1988 (antibody, V domains shown)
VH: EVQLVESGGGLIQPGGSLRLSCAVSGLNVSRDYMSWVRQAPGKGLEWISVIYRIGATMYADSVKGRFTISRDTSKNTVFLQMSRLKVADTAVYYCARNYYGSTLDYWGQGTLVTVSS
VL: EIVLTQSPVTLSVPPGERASLSCRASQNIYTAVAWYQQKPGQAPRLLIYNASTRATGIPARFSGGGSGTDYTLTISSLESEDFAVYHCQQWHSWPLTFGGGTKLEIK
notes: IgG1/kappa, CHO; also called H1813/L459
Affinity [1]: 0.04 nM | IC50, TNFα cytotoxicity assay (WEHI-13VAR cells) [3]: 200 pM | Affinity [4]: 0.04 nM

B18: MAb 1999 (antibody, V domains shown)
VH: EVQLVESGGGLIQPGGSLRLSCAVSGLNVSRDYMSWVRQAPGKGLEWISVIYRGGITMYADSVKGRFTISRDTSKNTVFLQMSRLKVADTAVYYCARNYYGSTLDYWGQGTLVTVSS
VL: EIVLTQSPVTLSVPPGERASLSCRASQNIYTAVAWYQQKPGQAPRLLIYNASTRATGIPARFSGGGSGTDYTLTISSLESEDFAVYHCQQWHSWPLTFGGGTKLEIK
notes: IgG1/kappa, CHO; also called H1824/L459
Affinity [1]: 0.04 nM | IC50, TNFα cytotoxicity assay (WEHI-13VAR cells) [3]: 300 pM | Affinity [4]: 0.04 nM

B19: MAb 1042 (antibody, V domains shown)
VH: EVQLLESGGGLIQPGGSLRLSCAASGFTVSSNYMSWVRQAPGKGLEWVSVIYSGGRTYYADSVKGRFTISRDSSKNTLYLQMNSLRAEDTAVYYCARNYYGSTFDYWGQGTLVTVSS
VL: EIVLTQSPVTLSVPPGERASLSCRASQNIYTAVAWYQQKPGQAPRLLIYGASTRATGIPARFSGGGSGTDYTLTISSLESEDFAVYHCQQWHSWPLTFGGGTKLEIK
notes: IgG1/kappa, CHO; also called H1482/L332
Affinity [1]: 0.07 nM | Affinity [5]: 0.07 nM
